Source: PMC5302901

Target: Grb2 (UniProt Q07883)
Experiment: IP of Grb2, blot for CD22
Conditions: reference: CD22-WT; sites Y773,Y783,Y828,Y843,Y863

binding against the reference: lost
Substance: CD22 (from UniProt P35329) F1/2/4/5/6
